Measurements published in patent publication US7772181B2, “Personal care compositions comprising modified variant Bowman Birk Protease Inhibitors” (Danisco US Inc., priority 2008, dated 2010).
Numbering of substitutions follows the chain as printed. Numbers in names are those of the source.

Key:
[1] = biological target: T1, bovine pancreatic trypsin (Bos taurus, UniProt P00760); test: Shake flask screen: trypsin inhibition after growth, 2-mercaptoethanol activation and acid/heat treatment; type: biochemical; conditions: for trypsin inhibitory activity after activation: alternative scaffolds compared with BBIt-AV
T1 construct: purchased Worthington (Worthington Biochemical Corp.)
T1 sequence (P00760 24-246): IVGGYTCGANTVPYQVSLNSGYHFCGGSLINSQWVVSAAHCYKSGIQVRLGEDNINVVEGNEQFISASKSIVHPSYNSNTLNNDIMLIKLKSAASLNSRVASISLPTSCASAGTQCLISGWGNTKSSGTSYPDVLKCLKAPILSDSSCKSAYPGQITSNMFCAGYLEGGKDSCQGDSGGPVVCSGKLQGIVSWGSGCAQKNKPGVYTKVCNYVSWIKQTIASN
Protocol: To increase expression, the gene copy of the selected clones was amplified by sequentially streaking colonies on Luria agar plates with 25 μg/ml chloramphenicol until the growth rate was similar to growth on Luria agar plates without chloramphenicol. Cultures of the selected variants and controls were grown in 3 ml Luria broth with 25 μg/ml chloramphenicol in 15 ml tubes for ˜10 h. These cultures (30 μl) were then used to inoculate 30 ml of MBD medium in 250 ml baffled shake flasks and grown at 37° C. and 225 rpm for ˜60 h.
For selection of the variants with the best yields, the culture broths were processed as follows. The broth was first activated by mixing 20 ml of broth with 20 ml of 0.25 M glycine buffer (pH 9.3) and the pH was adjusted to 9.0 with 50% NaOH. Then, 2-mercaptoethanol was added to the diluted cultures to a final concentration of 2 mM and the cultures were incubated overnight at room temperature with gentle shaking. The BBIt-AV moiety was then cleaved from the fusion protein by acid/heat treatment, which was accomplished by first adjusting the pH of the activated broth to pH 1.9-2.0 with sulfuric acid, and followed by incubation at 60° C. for 16 hours, with shaking. The BBIt-AV-BCE fusion protein and the BCE catalytic domain are not soluble at pH 2, whereas the free BBI species is soluble. After the cleavage reaction, the insoluble material was removed by centrifugation (5 min. at 3,000 rpm) and the supernatant was analyzed for trypsin inhibitory activity as described above. The BBI activity was also determined for the starting material and for the samples taken after activation. The BCE activity of the starting material was also determined as described above. The BBIt-AV:BCE activity ratios were then calculated for each step in process. The modified BBIt-AVs produced at the highest yields following the acid/heat treatment were selected for further study.

VegF = biological target: T2, VegF (UniProt P15692); test: BioVeris electrochemiluminescence competition binding assay, VEGF
T2 sequence (P15692 207-395): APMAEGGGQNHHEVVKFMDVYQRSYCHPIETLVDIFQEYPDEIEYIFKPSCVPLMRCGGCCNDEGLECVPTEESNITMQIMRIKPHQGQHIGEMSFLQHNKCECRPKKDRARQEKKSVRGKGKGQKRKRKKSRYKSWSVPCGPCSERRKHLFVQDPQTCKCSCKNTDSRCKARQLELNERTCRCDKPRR
Protocol: Briefly, after cleavage, the pH of the cleaved sample was adjusted to 5.5, the sample was then loaded onto the column (equilibrated with 25 mM MES pH 5.5). The free 2BBIck81 was washed through the column using 25 mM sodium acetate pH 5.0 while the BCE103 catalytic core remained bound to the resin. The 2BBIck81 fraction was concentrated by ultrafiltration and analyzed using an electrochemiluminescence (ECL) based binding assay (BioVeris). The Anti-VegF antibody (Santa Cruz) and VegF (PeproTech) were labeled with the electrochemiluminescent dye and biotin, respectively, as described by the manufacturer (BioVeris). All materials were in Dulbecco's PBS (Mediatech) supplemented with 0.1% TWEEN®-80. An initial dilution series of Anti-VegF antibody (125, 250 and 500 ng/ml) and VegF (100, 150, 200 and 250 ng/ml) were tested in the binding assay to determine the concentrations of each that would give a robust ECL signal.
For testing 2BBIck81 binding, 50 μL of 500 ng/ml ECL labeled Anti-VegF antibody, 50 μL of 250 ng/ml biotinylated VegF and 100 μL 2BBIck81 (series of 12.5, 15, 31.25, 62.5, 125, 250 or 500 ng/ml) were incubated at room temperature for 2 h with shaking. Then, 50 μL of 0.2 mg/ml streptavidin coated beads were added and the reaction was incubated at room temperature for 30 minutes. The ECL signal was measured using a BioVeris M8/384 Analyzer as described by the manufacturer (BioVeris).
The resulting vectors were used to transform B. subtilis BG6006 host cells. Cultures were grown in 500 ml of MBD medium and the BBI species were purified essentially as described above and by Vogtentanz et al., 2007 (Protein Expr Purif 55:40-52 [2007]). BioVeris binding assays were performed essentially as outlined in Example 5 and by the manufacturer. Binding of the modified variant BBIs to their respective target proteins was measured using a BioVeris® binding assay, which is a competition assay that determines the binding of the modified variant BBIs to its target protein (e.g. VEGF, FGF5, TGFβ and TNFα) in the presence or absence of a labeled competitor. The competitor can be a labeled monoclonal antibody raised against the target protein or a labeled native receptor of the target protein. The electrochemiluminescent binding assays were performed essentially as described in Example 5. The apparent IC50s were determined from binding data by determining the concentration of the BBI species needed to reduce the BioVeris signal by one half. BBI scaffolds without the target binding peptide in the chymotrypsin inhibitory loop were used as negative controls.

[2] = biological target: T1, bovine pancreatic trypsin; test: BBIt-AV:BCE activity ratio, microtiter plate screens (primary, quadruplicate secondary); type: biochemical; conditions: single substitution in BBIt-AV, in the presence of reducing agent
Protocol: The cultures in each master plate were thawed and a pin replicator was used to inoculate a new sterile microtiter plate containing 150 μl of Luria broth with 5 μg/ml chloramphenicol in each well. The plates were grown for ˜10 hrs in a humidified and aerated box as described above. For controls, the cultures in two wells were replaced with BBI and BBI-AV cultures that had been grown concurrently in 15 ml culture tubes (5 ml of Luria broth with 5 μg/ml chloramphenicol). After the cultures were grown, the plate was used to inoculate two duplicate 96-well filter plates (Millipore, MSGV2210) containing 150 μl of MBD medium (Vogtentanz et al., 2007) with 5 μg/ml chloramphenicol in each well by using a pin replicator. The duplicate plates were grown for ˜14 hours (as above, with plastic spacers placed between the stacked plates to allow for efficient air flow around the plates) and then 2-mecaptoethanol was added to each well in one of the plates to a final concentration of 2 mM. The plates were then grown for an additional ˜46 hours. The 96-well filter plates containing the culture broth (with or without added 2-mecaptoethanol) were then assayed for BBI and BCE activity.
Libraries were analyzed using dilutions of cultures grown in 96-well plates. Typically, the culture broth from each well was diluted (200 fold) in Assay Buffer (100 mM Tris pH 8.6, 0.005% Tween 80) and transferred to a second microtiter plate (CoStar 9017, Corning, Inc., Corning, N.Y.). Then, 20 μl of the diluted samples were transferred to a third microtiter plate. A standard curve was created by adding 20, 10, 5 or 2.5 μl of the diluted sBBI (SEQ ID NO:13) control culture to empty wells. Then, 80 μL of 50 ng/ml trypsin (bovine pancreatic trypsin, Worthington Biochemical Corp., Lakewood, N.J.) (prepared from a 1 mg/mL stock solution diluted into Assay Buffer) was added to each well of the plate. The reactions were mixed and incubated 15 min at room temperature. After the incubation, 100 μL of 0.5 mg/ml trypsin substrate (succinyl-Ala-Ala-Pro-Arg-para-nitroanilide, Bachem Bioscience, Inc., King of Prussia, Pa.), diluted in Assay Buffer from a 100 mg/ml solution in DMSO, was added to each well, mixed, and the absorbance at 405 nm was monitored for 15 min, with 1 time point recorded every 12 sec using a Spectra Max 250 (Molecular Devices). The data points were used to determine the rate for each reaction. The standard curve was generated by plotting the reaction rate versus the BBI volume and was fitted to a four-parameter equation. All data fitting was done using software supplied by the manufacturer (Molecular Devices Corp., Sunnyvale, Calif.). The activity of each BBIt-AV variant was calculated from the standard curve. Thus, the activities of all modified variant proteins were determined relative to the activity in the sBBI control (BBI-WT) culture.
The concentration of BCE was determined by an activity assay using purified BCE as a standard as described above and by (Vogtentanz et al. 2007). For the analysis of libraries grown in 96-well microtiter plates, 20 μl of culture broth were transferred to each well of a new microtiter plate. A standard curve was created by adding 20, 10, 5 or 2.5 μl of the diluted BBI-WT control culture to these empty wells. Then, 180 μl of the BCE substrate (0.25 μg/ml in Assay Buffer), 4-nitrophenyl β-D-cellobioside (Sigma, St. Louis, Mo.), was added to the plate. The plate was mixed and the absorbance at 405 nm monitored for 15 min, with 1 time point recorded every 12 s using a Spectra Max 250 (Molecular Devices Corp., Sunnyvale, Calif.). The data points were used to determine the rate for each reaction. The standard curve was generated by plotting rate versus culture volume and was fit to a quadratic curve. The BCE concentration in each variant culture was determined relative to the standard control culture. […]

B1: BBItc-AV: BBtc with CK37281 replacing the second protease inhibitory loop, SEQ ID NO:454 (protein)
chain: DPSSKWEACCDRCACTKSIPPQCHCADIRLNSCHSACESCACYNLYGWTCRCFDITDFCYKPCSG
modifications: synthetic BBtc-AV sequence
inhibitory activities after acid/heat treatment relative to BBIt-AV ([1]; alternative scaffolds): higher inhibitory activities after acid/heat treatment
trypsin inhibitory activity after activation [1]: highest trypsin inhibitory activity after activation

B2: BBIt-AV-A13L-L29P-A40K-F50T-V52A: modified variant BBPI, SEQ ID NO:615 (protein)
chain: DPDDESSKPCCDQCLCTKSNPPQCRCSDMRPNSCHSACKSCKCYNLYGWTCTCADITDFCYEPCKPSE
modifications: synthetic BBPI variant
yield after acid/heat treatment relative to BBIt-AV-A13I-L29P-A40K-F50T-V52A (SEQ ID NO:601) [1]: slightly better yields

B3: BBIsb3-AV: BBsb3 with CK37281 replacing the second protease inhibitory loop, SEQ ID NO:453 (protein)
chain: DPDDEYSKPCCDLCMCTRSMPPQCSCEDIRLNSCHSDCKSCACYNLYGWTCRCLDTNDFCYKPCKSRDD
modifications: synthetic BBsb3-AV sequence
activation with reducing agent ([1]; alternative scaffolds): did not activate with reducing agent
trypsin inhibitory activity after activation [1]: very low trypsin inhibitory activity

B4: BBIt-AV: truncated BBI-AV lacking the 5 C-terminal amino acids, unmodified variant, SEQ ID NO:187 (protein)
chain: DDESSKPCCDQCACTKSNPPQCRCSDMRLNSCHSACKSCACYNLYGWTCFCVDITDFCYEPCKPSE
modifications: synthetic BBIt-AV sequence
binding to VEGF compared with full-length (untruncated) BBI-AV (VegF; labeled monoclonal antibody against VEGF as competitor): bind better than the full-length molecule

B5: V52L: BBIt-AV (SEQ ID NO:187) with single substitution V52L (protein)
chain: B4 chain with V52L
modifications: synthetic BBIt-AV sequence
relative activity of the amino acid substitution (BBI:BCE activity ratio vs BBIt-AV), amino acid present in BBIsb3-AV [2]: L (+)
activation level (BBIt-AV:BCE activity ratio after reducing agent) ([1]; single substitutions in BBIt-AV): activate to similar levels

B6: BBIt-AV-4D13 insert -A13I-L29P-A40K-F50T-V52A: modified variant BBPI, SEQ ID NO:413 (protein)
chain: DPDDEPSKPCCDPDPDDESSKPCCDQCICTKSNPPQCRCSDMRPNSCHSACKSCKCYNLYGWTCTCADITDFCYEPCKPSE
modifications: synthetic BBPI sequence
yield after acid/heat treatment relative to BBIt-AV-A13I-L29P-A40K-F50T-V52A (SEQ ID NO:601) [1]: slightly better yields

B7: BBIt-AV of SEQ ID NO: 640 (protein)
chain: DPDDESSKPCCDQCICTKSNPPQCRCRDARPNACHSACKSCACKYYLYWWCKCTDITDFCYEPCKPSE
modifications: synthetic BBIt-VEGK
IC50 (VegF; Target protein VEGF, competition assay, concentration reducing BioVeris signal by one half, read-out: BioVeris Binding (apparent IC50)): 2 to 10 µM

B8: BBIdb-AV: BBdb with CK37281 replacing the second protease inhibitory loop, SEQ ID NO:452 (protein)
chain: DPSESSKPCCDQCACTKSIPPQCRCTDVRLNSCHSACSSCACYNLYGWTCVCVDMKDFCYEPCK
modifications: synthetic BBdb-AV sequence
inhibitory activities after acid/heat treatment relative to BBIt-AV ([1]; alternative scaffolds): higher inhibitory activities after acid/heat treatment
trypsin inhibitory activity after activation [1]: greater than that of the BBIt-AV inhibitor but less than that of the BBItc-AV inhibitor
